Reference: publication PMC3538890 (Traffic (Copenhagen, Denmark), 2012)

T1: CFP-GS27 (UniProt O14653 1-212)
T1 sequence (looked up): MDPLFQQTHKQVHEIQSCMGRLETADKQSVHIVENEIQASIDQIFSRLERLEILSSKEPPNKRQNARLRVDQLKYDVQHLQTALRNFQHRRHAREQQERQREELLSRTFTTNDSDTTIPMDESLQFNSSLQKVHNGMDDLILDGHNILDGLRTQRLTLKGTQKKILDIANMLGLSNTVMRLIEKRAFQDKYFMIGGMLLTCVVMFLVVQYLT

B1: COG6-myc with deletion of residues 76-112 (natural protein, human, UniProt Q9Y2V7 1-657, looked up)
chain: MAEGSGEVVAVSATGAANGLNNGAGGTSATTCNPLSRKLHKILETRLDNDKEMLEALKALSTFFVENSLRTRRNLNCCQDMTSRLQAAKEQTQDLIVKTTKLQSESQKLEIRAQVADAFLSKFQLTSDEMSLLRGTREGPITEDFFKALGRVKQIHNDVKVLLRTNQQTAGLEIMEQMALLQETAYERLYRWAQSECRTLTQESCDVSPVLTQAMEALQDRPVLYKYTLDEFGTARRSTVVRGFIDALTRGGPGGTPRPIEMHSHDPLRYVGDMLAWLHQATASEKEHLEALLKHVTTQGVEENIQEVVGHITEGVCRPLKVRIEQVIVAEPGAVLLYKISNLLKFYHHTISGIVGNSATALLTTIEEMHLLSKKIFFNSLSLHASKLMDKVELPPPDLGPSSALNQTLMLLREVLASHDSSVVPLDARQADFVQVLSCVLDPLLQMCTVSASNLGTADMATFMVNSLYMMKTTLALFEFTDRRLEMLQFQIEAHLDTLINEQASYVLTRVGLSYIYNTVQQHKPEQGSLANMPNLDSVTLKAAMVQFDRYLSAPDNLLIPQLNFLLSATVKEQIVKQSTELVCRAYGEVYAAVMNPINEYKDPENILHRSPQQVQTLLS
B2: COG6-myc with deletion of residues 112-150 (natural protein, human, UniProt Q9Y2V7 1-657, looked up)
chain: MAEGSGEVVAVSATGAANGLNNGAGGTSATTCNPLSRKLHKILETRLDNDKEMLEALKALSTFFVENSLRTRRNLRGDIERKSLAINEEFVSIFKEVKEELESISEDVQAMQVADAFLSKFQLTSDEMSLLRGTREGPITEDFFKALGRVKQIHNDVKVLLRTNQQTAGLEIMEQMALLQETAYERLYRWAQSECRTLTQESCDVSPVLTQAMEALQDRPVLYKYTLDEFGTARRSTVVRGFIDALTRGGPGGTPRPIEMHSHDPLRYVGDMLAWLHQATASEKEHLEALLKHVTTQGVEENIQEVVGHITEGVCRPLKVRIEQVIVAEPGAVLLYKISNLLKFYHHTISGIVGNSATALLTTIEEMHLLSKKIFFNSLSLHASKLMDKVELPPPDLGPSSALNQTLMLLREVLASHDSSVVPLDARQADFVQVLSCVLDPLLQMCTVSASNLGTADMATFMVNSLYMMKTTLALFEFTDRRLEMLQFQIEAHLDTLINEQASYVLTRVGLSYIYNTVQQHKPEQGSLANMPNLDSVTLKAAMVQFDRYLSAPDNLLIPQLNFLLSATVKEQIVKQSTELVCRAYGEVYAAVMNPINEYKDPENILHRSPQQVQTLLS

Biological target: T1, CFP-GS27
Experiment: co-IP

Binder	fold reduction of co-IP against full length COG6-myc [fold]
B1	~7
B2	~7
